Experimental findings from US20260022343A1 (AFFYXELL THERAPEUTICS, published 2026) are described below.

Several values for one entry are separate records, joined by “and”; a condition that tells them apart may be missing. Equal entries are not always repeated.

For experiment [1], the target named is T1, human Mega CD40L recombinant protein (Enzo Lifesciences) (human, UniProt P29965 116-261).
T1 sequence (looked up): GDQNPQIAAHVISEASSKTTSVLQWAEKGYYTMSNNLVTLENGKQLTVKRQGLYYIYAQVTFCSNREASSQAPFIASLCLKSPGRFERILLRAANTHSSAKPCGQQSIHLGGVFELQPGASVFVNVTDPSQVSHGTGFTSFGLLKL
Briefly: cell-based or functional assay.

The target of experiment [2] is T2, recombinant human CD40L (R&D Systems, 6420-CL-025/CF) (human, UniProt P29965 108-261, limits assumed).
T2 construct: Bought protein coated on the ELISA plate
T2 sequence (looked up): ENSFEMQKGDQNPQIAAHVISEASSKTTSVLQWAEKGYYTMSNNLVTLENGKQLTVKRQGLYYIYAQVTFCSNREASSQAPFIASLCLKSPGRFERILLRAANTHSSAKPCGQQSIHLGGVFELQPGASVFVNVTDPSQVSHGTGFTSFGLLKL
Briefly: binding ELISA (bELISA): plate coated with recombinant human CD40L, 1/3 serial dilutions of concentrated culture fluid, TMB read-out; second-named of the two gene-introduced cell lines (promoter not stated). The protocol:
(§1) Each cell line was inoculated into a T175 flask at a cell density of 4.0×10³ cells/cm² using a culture medium. After culture at 37° C. and 5% CO₂ for 18 to 24 hours, the culture medium was thoroughly replaced with a fresh culture medium every 2 days, followed by culture. After culture for 3 days, the cells were harvested, and 7.0×10⁶ cells were inoculated into a T175 flask, followed by culture at 37° C. and 5% CO₂ for 18 to 24 hours. The culture medium was thoroughly removed, and the remaining medium was completely removed through washing with 10 mL of MEM alpha. 30 mL of an MEM alpha medium was added to a T175 flask, followed by culture for 48 hours. After 48 hours, all of the cell culture fluid was harvested and then centrifuged to remove residual cells and impurities. The cell culture fluid was transferred to a Vivaspin 20 and centrifuged, the culture fluid was concentrated, and the stefin A protein variant was quantified through sandwich ELISA (LSBio, LS-F4620). […] The unbound stefin A protein variant was removed through washing, after which the extent of binding between the stefin A protein variant and CD40L was detected based on a difference in absorbance resulting from reaction with a TMB substrate.

Experiment [3] concerns the target T2, recombinant human CD40L (R&D Systems, …). Briefly: binding ELISA (bELISA): plate coated with recombinant human CD40L, 1/3 serial dilutions of concentrated culture fluid, TMB read-out; first-named of the two gene-introduced cell lines (promoter not stated). The procedure:
as §1

For a further experiment, the target named is T3, human TNFR2 (human, UniProt P20333 23-257, limits assumed).
T3 sequence (looked up): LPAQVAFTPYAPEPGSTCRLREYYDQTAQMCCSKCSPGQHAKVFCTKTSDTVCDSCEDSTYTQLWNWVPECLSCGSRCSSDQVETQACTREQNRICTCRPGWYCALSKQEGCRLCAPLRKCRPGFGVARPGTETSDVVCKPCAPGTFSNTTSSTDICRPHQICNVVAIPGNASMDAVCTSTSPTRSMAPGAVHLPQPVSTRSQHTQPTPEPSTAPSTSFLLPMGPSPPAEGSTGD
Briefly: selection of TNFR2-binding stefin A variants; method not described.

B1: anti-CD40L stefin A protein variant XT75 (SEQ ID NO: 105), secreted by gene-introduced MSC (eMSC) (designed binder)
chain: IPGGLSEAKPATPEIQEIVDKVKPQLEEKTGETYGKLEAVQYKTQVVHYYVHYNDQGTNYYIKVRAGDNKYMHLKVFKSLWGENLFAKWEDLVLTGYQVDKNKDDELTGFAEAAAKEAAAKEAAAKEAAAKEAAAKEAAAKMIPGGLSEAKPATPEIQEIVDKVKPQLEEKTGETYGKLEAVQYKTQVVHYYVHYNDQGTNYYIKVRAGDNKYMHLKVFKSLWGENLFAKWEDLVLTGYQVDKNKDDELTGFAEAAAKEAAAKEAAAKEAAAKEAAAKEAAAKMIPGGLSEAKPATPEIQEIVDKVKPQLEEKTGETYGKLEAVQYKTQVVHYYVHYNDQGTNYYIKVRAGDNKYMHLKVFKSLWGENLFAKWEDLVLTGYQVDKNKDDELTGFAEAAAKEAAAKEAAAKEAAAKEAAAKEAAAKMIPRGLSEAKPATPEIQEIVDKVKPQLEEKTGETYGKLEAVQYKTQVLANFFQRRWPGSTNYYIKVRAGDNKYMHLKVFNGPWKFRNTDRGADRVLTGYQVDKNKDDELTGF
notes: By their DNA these vectors appear to encode a further C-terminal Myc/His tag and a T2A remnant; also called AFX01-230 XT75(C); eMSC (XT75, w/EF1A)
Consider B1, for which the “IC50 for hMega CD40L, HEK-Blue CD40L reporter cell assay (absorbance of HEK-Blue solution)” value in experiment [1] is 0.303 nM and 0.4 nM. Moreover, the EC50 was found to be 0.0053 nM in experiment [2] and 0.0039 nM in experiment [3].

B2: TNFR2-binding stefin A variant CLONE 100 (designed binder)
chain: MIPRGLSEAKPATPEIQEIVDKVKPQLEEKTGETYGKLEAVQYKTQVLAQSWDKHYQLRESTNYYIKVRAGDNKYMHLKVFNGPEVPHHAHGVADRVLTGYQVDKNKDDELTGFAAAEQKLISEEDLAAHHHHHH
Consider B2, for which, in the experiment with human TNFR2, the binding result is “binds”.

B3: TNFR2-binding stefin A variant CLONE 026 (designed binder)
chain: MIPRGLSEAKPATPEIQEIVDKVKPQLEEKTGETYGKLEAVQYKTQVLALEIPSAIIYSTNYYIKVRAGDNKYMHLKVFNGPYFWGDQEHWADRVLTGYQVDKNKDDELTGFAAAEQKLISEEDLAAHHHHHH
notes: also called clone 26
On to B3, for which the binding result with human TNFR2 is listed as “binds”.

B4: TNFR2-binding stefin A variant CLONE 012 (designed binder)
chain: MIPGGLSEAKPATPEIQEIVDKVKPQLEEKTGETYGKLEAVQYKTQVVYWGVQGALDGTNYYIKVRAGDNKYMHLKVFKSLNWNHEFDLVEDLVLTGYQVDKNKDDELTGFAAAEQKLISEEDLAAHHHHHH
notes: also called clone 12
On to B4, for which, in the experiment with human TNFR2, the binding result is reported as “binds”.

B5: TNFR2-binding stefin A variant CLONE 009 (designed binder)
chain: MIPGGLSEAKPATPEIQEIVDKVKPQLEEKTGETYGKLEAVQYKTQVVRLFHIWRWWGTNYYIKVRAGDNKYMHLKVFKSLIHIYTDSIQEDLVLTGYQVDKNKDDELTGFAAAEQKLISEEDLAAHHHHHH
notes: also called clone 9
For B5, the binding result with human TNFR2 was “binds”.

B6: TNFR2-binding stefin A variant CLONE 044 (designed binder)
chain: MIPGGLSEAKPATPEIQEIVDKVKPQLEEKTGETYGKLEAVQYKTQVVLFPEAVYWVGTNYYIKVRAGDNKYMHLKVFKSLIWNDNAAQHEDLVLTGYQVDKNKDDELTGFAAAEQKLISEEDLAAHHHHHH
notes: also called clone 44
With B6, the binding result with human TNFR2 was “binds”.

B7: TNFR2-binding stefin A variant CLONE 001 (designed binder)
chain: MIPGGLSEAKPATPEIQEIVDKVKPQLEEKTGETYGKLEAVQYKTQVVGQDQWGNYAGTNYYIKVRAGDNKYMHLKVFKSLPDIPHNHWHEDLVLTGYQVDKNKDDELTGFAAAEQKLISEEDLAAHHHHHH
notes: also called clone 1
As for B7, the binding result in the experiment with human TNFR2 was “binds”.

B8: TNFR2-binding stefin A variant CLONE 007 (designed binder)
chain: MIPGGLSEAKPATPEIQEIVDKVKPQLEEKTGETYGKLEAVQYKTQVVGLDIWGNNAGTNYYIKVRAGDNKYMHLKVFKSLADTARTEEAEDLVLTGYQVDKNKDDELTGFAAAEQKLISEEDLAAHHHHHH
notes: also called clone 7
As for B8, in the experiment with human TNFR2, the binding result was “binds”.
